Results on one molecule are retold here after patent US20200392227A1 (LYVGEN BIOPHARMA, published 2020).

In test [1] the target is T1, human FcγRIIA(H131) expressed on CHO cells (human, UniProt P12318 34-317).
T1 construct: whole, on cells
T1 sequence (looked up): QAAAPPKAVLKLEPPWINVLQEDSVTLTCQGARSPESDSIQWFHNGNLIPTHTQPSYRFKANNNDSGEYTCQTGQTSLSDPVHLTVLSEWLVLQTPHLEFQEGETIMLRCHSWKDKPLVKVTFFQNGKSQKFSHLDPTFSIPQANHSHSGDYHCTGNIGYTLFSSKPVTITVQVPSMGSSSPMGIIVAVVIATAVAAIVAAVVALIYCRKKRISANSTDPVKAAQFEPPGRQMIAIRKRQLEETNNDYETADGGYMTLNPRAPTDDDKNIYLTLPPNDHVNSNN
Briefly: FACS, CHO cells expressing FcγRIIA(H131). How it is done:
(§1) For FACS analysis of the IgG mutants' binding to different FcγRs, FcγR overexpressing CHO cells were harvested using trypsin-EDTA and were suspended in cold staining buffer (3% BSA in PBS). Test IgG mutants, which were diluted in staining buffer, were added into the cells. The mixture was incubated 4° C. for 2 hours, and then washed twice with cold staining buffer and re-suspended in PE-labeled anti-human IgG followed by incubation at 4° C. for 2 hours. The mixture was washed twice with staining buffer and re-suspended in 2% PFA in PBS for FACS.

Test [2] has as its target T2, human FcRIIIA-F158 protein (MednaBio, E1036) (human, UniProt P08637 17-208).
T2 construct: Bought; also called FcγRIIIA(F)
Briefly: BLI. Background: Biolayer interferometry detects binding as a change in optical thickness at a sensor tip.

The target in test [3] is T3, human FcRIIA protein (MednaBio, E1033) (human, UniProt P12318 34-218, limits assumed).
T3 construct: Bought; also called FcγRIIA
T3 sequence (looked up): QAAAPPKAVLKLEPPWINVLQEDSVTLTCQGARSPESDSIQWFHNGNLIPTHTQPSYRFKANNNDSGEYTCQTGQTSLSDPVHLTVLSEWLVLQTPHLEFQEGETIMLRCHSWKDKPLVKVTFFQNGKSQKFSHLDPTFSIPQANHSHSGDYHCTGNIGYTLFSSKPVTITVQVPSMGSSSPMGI
Briefly: BLI.

Test [4] concerns the target T4, human FcRn protein (MednaBio, E1032) (human, UniProt P55899 24-297; P61769 21-119).
T4 construct: Bought; assays at pH 6
Briefly: BLI.

The target of test [5] is T5, human FcRI protein (MednaBio, E1031) (human, UniProt P12314 16-288, limits assumed).
T5 construct: Bought; loaded on anti-penta-HIS biosensors; also called FcγRI
T5 sequence (P12314 16-288 limits assumed): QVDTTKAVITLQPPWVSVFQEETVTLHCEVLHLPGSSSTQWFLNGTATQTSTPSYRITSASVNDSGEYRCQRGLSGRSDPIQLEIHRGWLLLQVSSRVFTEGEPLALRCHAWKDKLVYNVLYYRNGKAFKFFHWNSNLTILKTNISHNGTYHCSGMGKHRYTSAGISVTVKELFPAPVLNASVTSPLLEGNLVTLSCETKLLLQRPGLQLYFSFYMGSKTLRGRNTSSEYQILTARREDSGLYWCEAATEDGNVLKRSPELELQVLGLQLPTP
Briefly: BLI.

The target in test [6] is T6, human FcRIIB/C protein (MednaBio, E1034) (human, UniProt P31994 43-217, limits assumed).
T6 construct: Bought as FcRIIB/C; also called FcγRIIB; CD32B
T6 sequence (looked up): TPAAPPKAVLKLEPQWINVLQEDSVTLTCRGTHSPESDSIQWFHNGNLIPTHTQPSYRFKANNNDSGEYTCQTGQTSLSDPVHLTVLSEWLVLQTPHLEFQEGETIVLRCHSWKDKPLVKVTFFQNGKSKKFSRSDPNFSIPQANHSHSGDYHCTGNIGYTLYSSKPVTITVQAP
As to the kind of experiment: BLI.

Test [7] has as its target T7, human FcRIIIA-V158 protein (MednaBio, E1035) (human, UniProt P08637 17-208).
T7 construct: Bought; also called FcγRIIIA(V); FcgRIIIA(V)
As to the kind of experiment: BLI.

In test [8] the target is T8, human FcRIIIB protein (MednaBio, E1037) (human, UniProt O75015 17-200).
T8 construct: Bought; also called FcγRIIIB; FcgRIIIB
T8 sequence (O75015 17-200 limits assumed): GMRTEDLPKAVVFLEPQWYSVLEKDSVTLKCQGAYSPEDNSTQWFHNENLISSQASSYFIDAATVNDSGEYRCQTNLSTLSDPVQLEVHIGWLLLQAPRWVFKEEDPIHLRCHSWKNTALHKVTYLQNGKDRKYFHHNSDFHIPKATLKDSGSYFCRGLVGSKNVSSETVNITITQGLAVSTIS
As to the kind of experiment: BLI.

For test [9], the target named is T9, human FcγRIIB expressed on CHO cells (human, UniProt P31994 43-310).
T9 construct: whole, on cells; also called CD32B
T9 sequence (looked up): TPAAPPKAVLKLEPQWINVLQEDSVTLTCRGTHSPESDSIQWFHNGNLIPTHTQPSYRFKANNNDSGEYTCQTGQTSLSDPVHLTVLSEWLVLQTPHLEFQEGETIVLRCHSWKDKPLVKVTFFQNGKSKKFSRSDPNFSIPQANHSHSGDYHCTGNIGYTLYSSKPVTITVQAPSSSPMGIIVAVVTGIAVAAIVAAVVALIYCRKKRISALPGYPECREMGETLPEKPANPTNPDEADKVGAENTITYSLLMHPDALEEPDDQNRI
As to the kind of experiment: FACS, CHO cells expressing FcγRIIB. How it is done: as §1
In general terms: Flow cytometry measures light scatter and fluorescence of single cells or particles in a stream.

Test [10] deals with T10, human FcγRIIC expressed on CHO cells (human, UniProt P31995 43-323).
T10 construct: whole, on cells
T10 sequence (looked up): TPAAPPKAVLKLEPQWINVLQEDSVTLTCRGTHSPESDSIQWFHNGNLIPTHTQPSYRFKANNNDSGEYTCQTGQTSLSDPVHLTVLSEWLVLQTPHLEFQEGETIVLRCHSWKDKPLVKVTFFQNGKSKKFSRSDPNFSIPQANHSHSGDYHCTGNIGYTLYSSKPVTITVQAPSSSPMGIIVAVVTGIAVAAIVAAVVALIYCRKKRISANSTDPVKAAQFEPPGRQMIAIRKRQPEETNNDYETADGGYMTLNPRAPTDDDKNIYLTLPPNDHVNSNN
As to the kind of experiment: FACS, CHO cells expressing FcγRIIC.

As a reminder, the Kd is a measure of binding affinity in units of concentration. Read a low Kd as tighter binding. What is called koff is the first-order rate constant of dissociation. Low readings indicate a long-lived complex, high ones a short-lived complex. For orientation: kon means the second-order rate constant of association. Read a low kon as slower complex formation.

T4 sequence (P55899 24-297 limits assumed, form in doubt, chain 1 of 2): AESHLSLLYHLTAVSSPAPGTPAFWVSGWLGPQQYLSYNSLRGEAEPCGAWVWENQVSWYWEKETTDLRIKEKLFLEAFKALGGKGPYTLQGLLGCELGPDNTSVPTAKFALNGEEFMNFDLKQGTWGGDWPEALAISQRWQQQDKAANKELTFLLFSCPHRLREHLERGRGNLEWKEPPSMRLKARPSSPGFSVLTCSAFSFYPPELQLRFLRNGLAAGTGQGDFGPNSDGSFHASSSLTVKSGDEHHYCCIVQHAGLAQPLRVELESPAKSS
T4 sequence (P61769 21-119 limits assumed, form in doubt, chain 2 of 2): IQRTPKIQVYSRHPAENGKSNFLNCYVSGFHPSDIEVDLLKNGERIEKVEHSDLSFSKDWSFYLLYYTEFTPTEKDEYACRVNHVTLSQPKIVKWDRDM
T2 sequence (P08637 17-208 limits assumed): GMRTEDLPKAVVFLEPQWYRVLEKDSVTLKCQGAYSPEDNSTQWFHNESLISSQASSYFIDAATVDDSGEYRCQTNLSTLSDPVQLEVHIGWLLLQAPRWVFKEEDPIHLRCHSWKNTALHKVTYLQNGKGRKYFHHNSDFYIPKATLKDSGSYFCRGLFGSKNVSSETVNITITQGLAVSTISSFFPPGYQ
T7 sequence (P08637 17-208 F176V): as the sequence (P08637 17-208 limits assumed) above, with F160V counted along it

B1: anti-CD137 IgG1 with Fc variant G1m2 (antibody)
heavy: EVQLVQSGAEVKKPGESLRISCKGSGYSFSTYWISWVRQMPGKGLEWMGKIYPGDSYTNYSPSFQGQVTISADKSISTAYLQWSSLKASDTAMYYCARGYGIFDYWGQGTLVTVSSASTKGPSVFPLAPSSKSTSGGTAALGCLVKDYFPEPVTVSWNSGALTSGVHTFPAVLQSSGLYSLSSVVTVPSSSLGTQTYICNVNHKPSNTKVDKKVEPKSCDKTHTCPPCPAPELLGPSVFLFPPKPKDTLMISRTPEVTCVVVDVSHEDPEVKFNWYVDGVEVHNAKTKPREEQYNSTYRVVSVLTVLHQDWLNGKEYKCKVSNKALPAPIEKTISKAKGQPREPQVYTLPPSREEMTKNQVSLTCLVKGFYPSDIAVEWESNGQPENNYKTTPPVLDSDGSFFLYSKLTVDKSRWQQGNVFSCSVMHEALHNHYTQKSLSLSPGK
light: SYELTQPPSVSVSPGQTASITCSGDNIGDQYAHWYQQKPGQSPVLVIYQDKNRPSGIPERFSGSNSGNTATLTISGTQAMDEADYYCATYTGFGSLAVFGGGTKLTVLGQPKAAPSVTLFPPSSEELQANKATLVCLISDFYPGAVTVAWKADSSPVKAGVETTTPSKQSNNKYAASSYLSLTPEQWKSHRSYSCQVTHEGSTVEKTVAPTECS
notes: copies: 2 + 2
Consider B1, for which the binding result in test [1] is reported as “no binding (tested: 10 ug/ml)”; in test [2] it was “no binding (tested: 300 nM)”; in test [3] it was “no binding (tested: 300 nM)”; in test [5] it was “no binding (tested: 300 nM)”; in test [6], “no binding (tested: 300 nM)”; in test [7], “no binding (tested: 300 nM)”. Moreover, the binding result was “no binding (tested: 300 nM)” in [8], “no binding (tested: 10 ug/ml)” in test [9] and “no binding (tested: 10 ug/ml)” in test [10]. The same molecule showed a Kd in test [4] of 13 nM. The koff in [4] was 0.0093 s⁻¹. In test [4], this molecule registered a kon of 710000 M⁻¹ s⁻¹.
